In the experiment the target is T1, Drosophila Su(H) (aa 98–523) (Drosophila, UniProt P28159 98-523).
T1 construct: Suppressor of Hairless, Su(H), Drosophila, residues 98-523; also called Suppressor of Hairless; CSL transcription factor
Put plainly: native gel or EMSA; purified proteins mixed with fluorescently labelled 2xCSL17 and 1xSPS15 DNA probes, room temperature 20 minutes; Su(H) 2.5 to 160 nM, 2 μM Hairless or NICD/Mam; the protein complexes are seen bound to the DNA probe; band intensities fitted to a 2-site equilibrium model. To be noted: both partners purified. For orientation: Mobility shift assays separate free from complexed probe on a gel.

T1 sequence (P28159 98-523): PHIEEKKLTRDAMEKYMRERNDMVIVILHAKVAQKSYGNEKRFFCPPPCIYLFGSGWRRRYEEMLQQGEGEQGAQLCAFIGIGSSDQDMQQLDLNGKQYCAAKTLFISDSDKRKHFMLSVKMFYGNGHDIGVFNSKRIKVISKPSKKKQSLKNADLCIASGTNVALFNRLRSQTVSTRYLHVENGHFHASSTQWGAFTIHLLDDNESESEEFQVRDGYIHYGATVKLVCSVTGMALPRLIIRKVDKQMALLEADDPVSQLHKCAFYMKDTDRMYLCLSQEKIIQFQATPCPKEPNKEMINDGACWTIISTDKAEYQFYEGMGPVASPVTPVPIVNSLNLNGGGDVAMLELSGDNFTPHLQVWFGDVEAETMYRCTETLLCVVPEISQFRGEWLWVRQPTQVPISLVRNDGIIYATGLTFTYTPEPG

B1: Drosophila Notch intracellular domain, NICD (aa 1763–2142) (domain or fragment, UniProt P07207 1763-2142, looked up)
chain: VLSTQRKRAHGVTWFPEGFRAPAAVMSRRRRDPHGQEMRNLNKQVAMQSQGVGQPGAHWSDDESDMPLPKRQRSDPVSGVGLGNNGGYASDHTMVSEYEEADQRVWSQAHLDVVDVRAIMTPPAHQDGGKHDVDARGPCGLTPLMIAAVRGGGLDTGEDIENNEDSTAQVISDLLAQGAELNATMDKTGETSLHLAARFARADAAKRLLDAGADANCQDNTGRTPLHAAVAADAMGVFQILLRNRATNLNARMHDGTTPLILAARLAIEGMVEDLITADADINAADNSGKTALHWAAAVNNTEAVNILLMHHANRDAQDDKDETPLFLAAREGSYEACKALLDNFANREITDHMDRLPRDVASERLHHDIVRLLDEHVPR
notes: Notch, Drosophila, intracellular domain, residues 1763-2142
As to B1, the binding result is on record as “binds”.

B2: Drosophila Mastermind (aa 87–307) (domain or fragment, UniProt P21519 87-307, looked up)
chain: PYNANLGATGGIAGITGGNGAGGPTNPGAVPTAPGDTMPTKRMPVVDRLRRRMENYRRRQTDCVPRYEQAFNTVCEQQNQETTVLQKRFLESKNKRAAKKTDKKLPDPSQQHQQQQHQQQQQHQQHQQHQQAQTMLAGQLQSSVHVQQKFLKRPAEDVDNGPDSFEPPHKLPNNNNNSNSNNNNGNANANNGGNGSNTGNNTNNNGNSTNNNGGSNNNGSE
notes: Mastermind, Drosophila, residues 87-307; also called Mam; MAM
For the molecule B2, the binding result is listed as “binds”.
